Positions count from the first letter of the chain named. Each block holds one binder with its values, some of them ahead of it.
How the values were obtained:
[1] = molecular target: T1, human TNFR1-Fc fusion protein (human, UniProt P19438 29-211); assay: QCM, human TNFR1-Fc immobilised
T1 construct: range 29-211; Made in stably transfected HEK293 cells; coated on ELISA plates or immobilised on QCM chips; also called huTNFR1-Fc; human TNFR-Fc; not shown: Fc part from vector pSecTagL1-Fc
T1 sequence (looked up): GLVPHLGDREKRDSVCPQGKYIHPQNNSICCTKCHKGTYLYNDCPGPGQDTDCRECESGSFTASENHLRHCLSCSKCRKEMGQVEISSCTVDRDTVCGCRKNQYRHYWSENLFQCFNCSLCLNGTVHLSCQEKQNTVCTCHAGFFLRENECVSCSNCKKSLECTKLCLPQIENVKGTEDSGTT
Description: (§1) Real-time binding dynamics in protein-protein interactions were determined by quartz crystal microbalance measurements (A-100 C-Fast or Cell-200 C-Fast, Attana, Stockholm, Sweden). One of the binding partners (ligand, e.g. TNFR1-Fc) was chemically immobilized on a carboxyl sensor chip according to the manufacturer's protocol at different densities (nearly 200 Hz in the case of saturating conditions to confirm previously published results and 50-100 Hz, in particular at about 50 Hz, to establish conditions of lower receptor density, better resembling the situation on the cellular surface). Binding experiments were performed with samples (analyte) diluted in PBST (PBS, 0.1% Tween 20) at pH 7.4 with a flow rate of 25 µl/min at 37° C. The chip was regenerated with 25 µl 5 mM NaOH or 20 mM glycine, pH 2.0. Every third measurement, an injection of running buffer was measured which was subtracted from the binding curve. Data were collected using the software provided by Attana for the particular device and analyzed by Attaché Office Evaluation software (Attana, Stockholm, Sweden) and TraceDrawe (ridgview instruments, Vange, Sweden).

[2] = molecular target: T2, human TNFR1 on cells (HT1080, HeLa, Kym-1) (human, UniProt P19438 30-455); assay: cell-based or functional assay
T2 sequence (looked up): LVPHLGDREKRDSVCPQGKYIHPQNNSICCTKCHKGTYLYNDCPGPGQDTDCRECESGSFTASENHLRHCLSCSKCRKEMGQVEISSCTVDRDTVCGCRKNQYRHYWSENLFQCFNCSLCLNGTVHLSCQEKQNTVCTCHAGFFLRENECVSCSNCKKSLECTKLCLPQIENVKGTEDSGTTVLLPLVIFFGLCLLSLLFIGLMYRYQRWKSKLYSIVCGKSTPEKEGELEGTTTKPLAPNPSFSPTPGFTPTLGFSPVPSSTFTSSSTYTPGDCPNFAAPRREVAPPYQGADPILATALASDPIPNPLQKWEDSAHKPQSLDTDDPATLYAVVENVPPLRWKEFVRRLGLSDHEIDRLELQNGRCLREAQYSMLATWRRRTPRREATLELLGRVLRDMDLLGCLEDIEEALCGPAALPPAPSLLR

[3] = molecular target: T1, human TNFR1-Fc fusion protein; assay: QCM, soluble scFv, moderate receptor density
Description: as §1

[4] = molecular target: T1, human TNFR1-Fc fusion protein; assay: ELISA, human TNFR1-Fc
[5] = molecular target: T1, human TNFR1-Fc fusion protein; assay: QCM
[6] = molecular target: T2, human TNFR1 on cells (HT1080, HeLa, …); assay: cell-based or functional assay; remark: listed apart in the source
[7] = molecular target: T1, human TNFR1-Fc fusion protein; assay: ELISA, immobilised human TNFR1-Fc
[8] = molecular target: T1, human TNFR1-Fc fusion protein; assay: ELISA, immobilised human TNFR1-Fc; remark: listed apart in the source
[9] = molecular target: T2, human TNFR1 on cells (HT1080, HeLa, …); assay: cell-based or functional assay; remark: listed apart in the source
[10] = molecular target: T1, human TNFR1-Fc fusion protein; assay: standard ELISA, human TNFR1-Fc
Description: (§2) FIG. 1. […] Applied were triplicates of five concentrations between 3.9 nM and 62.5 nM.
Microtiter plates were coated with 100 µl of the indicated protein (1 µg/ml in PBS, see Table 3.3) and incubated at 4° C. over night. The residual binding sites were blocked with 2% MPBS (skim milk in PBS, 200 µl per well) at room temperature for 2 hours and subsequently washed twice with PBS. 100 µl of the samples diluted in 2% MPBS were incubated at room temperature for 1 hour prior to the last incubation step with 100 µl of the HRP conjugated detection antibodies in 2% MPBS. In the case of competition experiments, both analyzed protein samples were prepared individually (either titrated or diluted to a single concentration) and mixed before they were applied to the plate. Bound protein was detected with 100 µl TMB substrate solution, the HRP-reaction was stopped by the addition of 50 µl 1 M H2SO4 and the absorption at the wavelength of 450 nm was measured using the Infinite microtiter plate reader (TECAN, Maennedorf, Switzerland). Between each incubation step and in advance of the detection, the plates were washed three times with PBST and twice with PBS.

[11] = molecular target: T1, human TNFR1-Fc fusion protein; assay: QCM, human TNFR1-Fc immobilised, low receptor density (48 Hz)
Description: as §1

[12] = molecular target: T2, human TNFR1 on cells (HT1080, HeLa, …); assay: cell-based or functional assay; remark: listed apart in the source
[13] = molecular target: T1, human TNFR1-Fc fusion protein; assay: QCM, human TNFR1-Fc immobilised, high receptor density (195 Hz)
Description: as §2, §1

[14] = molecular target: T2, human TNFR1 on cells (HT1080, HeLa, …); assay: cell-based or functional assay; remark: listed apart in the source
[15] = molecular target: T1, human TNFR1-Fc fusion protein; assay: ELISA, human TNFR1-Fc; remark: listed apart in the source
[16] = molecular target: T1, human TNFR1-Fc fusion protein; assay: phage ELISA on human TNFR1

B1: scFvIG11 (scFv, V domains shown)
VH: QVQLVQSGAEVKKPGSSVKVSCKASGYTFTDFYINWVRQAPGQGLEWIGEIVPTQGEAKYNDKFKARVTITADKSTSTAYMELSSLRSEDTAVYYCARWDFLDYWGQGTTVTVSS
VL: DIVMTQSPLSLPVTPGEPASISCRSSQSLLHSNGNTYLHWYLQKPGQSPQLLIYTVSNRFSGVPDRFSGSGSGTDFTLKISRVEAEDVGVYYCSQSTHVPYTFGGGTKVEIK
Kd [1]: 24.9 nM | koff [1]: 0.0036 s⁻¹ | kon [1]: 150000 M⁻¹ s⁻¹ | IC50 (nM), approximated; inhibition of TNF (0.1 nM) induced IL-8 release [2]: ~300 nM | relative koff (compared with scFvIZI06.1) [3]: 0.31 relative to scFvIZI06.1 | EC50 [4]: 2.6 nM | fold KD compared with scFvIZI06.1 [5]: 2 fold | fold reduced koff compared with scFvIZI06.1 [5]: ~3 fold | koff [5]: 0.00026 s⁻¹

B2: IgG13.7half (antibody, V domains shown)
VH: B1 VH with Q1H, T54S
VL: DVQMTQSPSSLSASVGDRVTITCRSSQSLLHSNGNTYLHWYQQKPGKAPKLLIYTVSNRFSGVPSRFSGSGSGTDFTLTISSLQPEDFATYYCSQSTHVPYTFGGGTKVEIKR
notes: Monovalent half IgG1
IL-8 Inhibition IC50 [nM] (HT1080 cells, 0.1 nM soluble TNF) [6]: 63.3 nM | EC50 [7]: 0.8 nM | fold increased EC50 compared to unmodified Fab13.7 [8]: 1.9 fold | fold higher IC50 (IL-8 release inhibition) compared to Fab13.7 [9]: 1.8 fold

B5: scFvT12B (scFv, V domains shown)
VH: B1 VH with Q1H, T54S
VL: B1 VL with S96G
Improved (factor of KD regarding scFvIG11) [1]: 4.1 fold | Improved (factor of koff regarding scFvIG11) [1]: 2 fold | Improved (factor of kon regarding scFvIG11) [1]: 2.1 fold | IC50 (nM), inhibition of TNF-induced IL-8 release from HT1080 cells [14]: 309 nM | EC50 [15]: 1.14 nM | IC50 (nM), approximated; inhibition of TNF (0.1 nM) induced IL-8 release [2]: ~45 nM | Improved (factor of IC50 regarding scFvIG11) [2]: ~6.7 fold | relative koff (compared with scFvIZI06.1) [3]: 0.25 relative to scFvIZI06.1 | EC50 [4]: 2 nM | Improved (factor of EC50 regarding scFvIG11) [4]: 1.3 fold | relative EC50 (compared with scFvIZI06.1) [16]: 0.017 relative to scFvIZI06.1

B6: Fab13.7-MSA (Fab)
heavy: HVQLVQSGAEVKKPGSSVKVSCKASGYTFTDFYINWVRQAPGQGLEWIGEIVPSQGEAKYNDKFKARVTITADKSTSTAYMELSSLRSEDTAVYYCARWDFLDYWGQGTTVTVSSASTKGPSVFPLAPSSKSTSGGTAALGCLVKDYFPEPVTVSWNSGALTSGVHTFPAVLQSSGLYSLSSVVTVPSSSLGTQTYICNVNHKPSNTKVDKKVEPKSCGGGGSGGGGSSLEAHKSEIAHRYNDLGEQHFKGLVLIAFSQYLQKCSYDEHAKLVQEVTDFAKTCVADESAANCDKSLHTLFGDKLCAIPNLRENYGELADCCTKQEPERNECFLQHKDDNPSLPPFERPEAEAMCTSFKENPTTFMGHYLHEVARRHPYFYAPELLYYAEQYNEILTQCCAEADKESCLTPKLDGVKEKALVSSVRQRMKCSSMQKFGERAFKAWAVARLSQTFPNADFAEITKLATDLTKVNKECCHGDLLECADDRAELAKYMCENQATISSKLQTCCDKPLLKKAHCLSEVEHDTMPADLPAIAADFVEDQEVCKNYAEAKDVFLGTFLYEYSRRHPDYSVSLLLRLAKKYEATLEKCCAEANPPACYGTVLAEFQPLVEEPKNLVKTNCDLYEKLGEYGFQNAILVRYTQKAPQVSTPTLVEAARNLGRVGTKCCTLPEDQRLPCVEDYLSAILNRVCLLHEKTPVSEHVTKCCSGSLVERRPCFSALTVDETYVPKEFKAETFTFHSDICTLPEKEKQIKKQTALAELVKHKPKATAEQLKTVMDDFAQFLDTCCKAADKDTCFSTEGPNLVGGAAAHHHHHH
light: DVQMTQSPSSLSASVGDRVTITCRSSQSLLHSNGNTYLHWYQQKPGKAPKLLIYTVSNRFSGVPSRFSGSGSGTDFTLTISSLQPEDFATYYCSQSTHVPYTFGGGTKVEIKRTVAAPSVFIFPPSDEQLKSGTASVVCLLNNFYPREAKVQWKVDNALQSGNSQESVTEQDSKDSTYSLSSTLTLSKADYEKHKVYACEVTHQGLSSPVTKSFNRGEC
notes: also called Fab13.7 MSA fusion protein
IL-8 Inhibition IC50 [nM] (HT1080 cells, 0.1 nM soluble TNF) [6]: 65.5 nM | EC50 [7]: 0.7 nM | fold increased EC50 compared to unmodified Fab13.7 [8]: 1.7 fold | fold higher IC50 (IL-8 release inhibition) compared to Fab13.7 [9]: 1.9 fold

Further lines, results first:

EC50 [10]: 0.15 nM | Kd [11]: 1.6 nM | koff [11]: 0.00062 s⁻¹ | IC50, LT [nM] (inhibition of IL-8 release from HT1080 cells induced by LTα) [12]: 0.65 nM | IC50, TNF [nM] (inhibition of IL-8 release from HT1080 cells induced by 0.1 nM TNF) [12]: 4.1 nM | Kd [13]: 0.23 nM
B3: H398 (antibody, V domains shown)
VH: QVQLQESGAELARPGASVKLSCKASGYTFTDFYINWVKQRTGQGLEWIGEIYPYSGHAYYNEKFKAKATLTADKSSSTAFMQLNSLTSEDSAVYFCVRWDFLDYWGQGTTLTVSS
VL: B1 VL with T14S, P15L, E17D, P18Q, L42V, Q50K, V88L, Y92F, V109L

Kd [1]: 28.9 nM | koff [1]: 0.014 s⁻¹ | kon [1]: 500000 M⁻¹ s⁻¹ | IC50 (nM), inhibition of TNF-induced IL-8 release from HT1080 cells [14]: 932 nM | EC50 [15]: 3.07 nM | IC50 (nM), approximated; inhibition of TNF (0.1 nM) induced IL-8 release [2]: ~200 nM | relative koff (compared with scFvIZI06.1) [3]: 1 relative to scFvIZI06.1 | EC50 [4]: 3.8 nM | koff [5]: 0.00076 s⁻¹ | relative EC50 (compared with scFvIZI06.1) [16]: 1 relative to scFvIZI06.1
B4: scFvIZI06.1 (scFv, V domains shown)
VH: B1 VH with V52Y, T54Y, Q55S, E57H, K59Y, D62E
VL: B1 VL
notes: Made in the periplasm of E. coli TG1; also called ATROSAB scFv
